Test results as given in PMC9052748, “The Di-Iron Protein YtfE Is a Nitric Oxide-Generating Nitrite Reductase Involved in the Management of Nitrosative Stress” (Journal of the American Chemical Society, 2022).

How the values were obtained:
YtfE = molecular target: T1, YtfE (Escherichia coli, UniProt P69506); assay: initial rates of DTT-mediated reduction of air-exposed YtfE (A340 nm), binding isotherm; assay type: biochemical; conditions: air-exposed (oxidized) YtfE ~90 μM; DTT 0 to 80 mM; reductant; apparent value from rates
T1 construct: C-terminal His tag (pGS2618, pET24a derivative), expressed in E. coli BL21 (DE3)-T1R, purified anaerobically; di-iron holo form, 26,154 Da, monomer
From the text: initial rates of DTT-mediated reduction of air-exposed YtfE (A340 nm), binding isotherm on YtfE | fitted using a simple binding isotherm, from which a Kd was obtained

purified protein = substrate: O=NO; assay: purified protein; assay type: biochemical, Escherichia coli; conditions: di-ferrous YtfE 10 μM, reductant dithionite-reduced methyl viologen 58 μM, pH 7.5, 100 mM Tris, anaerobic

Molecule: OC(CS)C(O)CS (stereo not drawn) [DTT]
- Kd (YtfE): 7.3 mM

B1: YtfE (Escherichia coli K-12) (protein)
chain: MAYRDQPLGELALSIPRASALFRKYDMDYCCGGKQTLARAAARKELDVEVIEAELAKLAEQPIEKDWRSAPLAEIIDHIIVRYHDRHREQLPELILQATKVERVHADKPSVPKGLTKYLTMLHEELSSHMMKEEQILFPMIKQGMGSQAMGPISVMESEHDEAGELLEVIKHTTNNVTPPPEACTTWKAMYNGINELIDDLMDHISLENNVLFPRALAGE
notes: C-terminal His tag (pGS2618, pET24a derivative), expressed in E. coli BL21 (DE3)-T1R, purified anaerobically; di-iron holo form, 26,154 Da, monomer
- Km (purified protein): 252 (± 32) μM
- Vmax (purified protein): 1.33 µmol/min/mg
- kcat (purified protein): 0.58 ± 0.0265 s⁻¹
- kcat/Km (purified protein): 2300 ± 105 M⁻¹ s⁻¹

B2: YtfE (Escherichia coli K-12; C30A/C31A) (protein)
chain: MAYRDQPLGELALSIPRASALFRKYDMDYAAGGKQTLARAAARKELDVEVIEAELAKLAEQPIEKDWRSAPLAEIIDHIIVRYHDRHREQLPELILQATKVERVHADKPSVPKGLTKYLTMLHEELSSHMMKEEQILFPMIKQGMGSQAMGPISVMESEHDEAGELLEVIKHTTNNVTPPPEACTTWKAMYNGINELIDDLMDHISLENNVLFPRALAGE
notes: as for B1
- Km (purified protein): 288 (± 29) μM
- Vmax (purified protein): 1.59 µmol/min/mg
- kcat (purified protein): 0.693 ± 0.0263 s⁻¹
- kcat/Km (purified protein): 2410 ± 91.7 M⁻¹ s⁻¹
